# Laboratory results from the nanobody polyreactivity screen of Harvey et al. (2022).
# Assay: yeast display, Sf9 membrane polyspecificity reagent, FACS + sequencing; frameworks hold sequencing errors
# Method in brief: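 Galactose induction of a Saccharomyces cerevisiae BJ5465 synthetic nanobody display library ran 36–48 hours. The cells were then stained for 1 hour at 4 °C with 10% biotinylated, detergent-solubilized Sf9 membrane reagent, pulled down on streptavidin microbeads and FACS-sorted into low and high (top ~1%) gates on expression and reagent-binding fluorescence. Labels for polyreactivity follow the gate of origin.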
row,Sequence,polyreactivity (PSR sort gate)
1,QVQLVESGGGLVQAGGSLRLSCAASGRIFGANAMGWYRQAPGKERELVAAISYSGSRTYYADSVKGRFTISRDNAKNTVYLQMNSLKPEDTAVYYCNTGIAGRRSGYRTDSDYWGQGTQVTVSS,high polyreactivity
2,QVQLVESGGGLVQAGGSLRLSCAASGRIFGAYALGWYRQAPGKERELVAAINSGGSTFYAHSVKGRFTISRDNAKNTVYLQLNSLKPDDTAVYYCAKRSYDYRRYYWGQGTQVTVSS,high polyreactivity
3,QVQLVESGGGLVQAGGSLRLSCAASGRIFGAYAMGWSRQAPGKERELVAAISSSGSRTYYADSVKGRFTISRDNAKNTVYLQMNSLKPEDTAVYYCAATRVSALYDYWGQGTQVTVSS,high polyreactivity
4,QVQLVESGGGLVQAGGSLRLSCAASGRIFGAYAMGWYRQAPGKERELVAAITGGGSTYYADSVKGRFTISRDNAKTTVYLQMKSLKPEDTAVYYCAADYYWTYSYYYERFDYWGQGTQVTVSS,low polyreactivity
5,QVQLVESGGGLVQAGGSLRLSCAASGRIFGAYAMGWYRQAPGKERELVAVITTDGSTTYADSVKGRFTISRDNAKNTVYLQMNSLKPEDTAVYYCAAYGGNGQYYSQYDYWGQGTQVTVSS,low polyreactivity
6,QVQLVESGGGLVQAGGSLRLSCAASGRIFGDNALGWYRQAPGKERELVAAITWSGGSTYYADSVKGRFTISRDNAKNTVYLQMNSLKPEDTAVYYCAADSHRDSSEMDYWGQGTQVTVSS,low polyreactivity
7,QVQLVESGGGLVQAGGSLRLSCAASGRIFGDNDMGWSRQAPGKDRELVAGIRWRADRTYYADSVKGRFTISRDNAKNTVYLQMNSLKPEDTAVYYCNVGSFTGHSYGFGYWGQGTQVTVSS,low polyreactivity
8,QVQLVESGGGLVQAGGSLRLSCAASGRIFGDNGMGWYRQAPGKERELVTYADSVKGRFTISRDNAKNTVYLQMNSLKAEDTAVYESNKDPPGFSGLDEIYWGQGTQVTVSS,low polyreactivity
9,QVQLVESGGGLVQAGGSLRLSCAASGRIFGDNVMGWYRQPPGKERELVAAIRKSGGNTYYADSVKGRFTISRDNAKNTVYLHMNSLKPEDTAVYYCAARYPYLYGFVEYDYWGQGTQVTLSS,low polyreactivity
10,QVQLVESGGGLVQAGGSLRLSCAASGRIFGDYAMGWYRQAPGKERELVAGINFSGGSTYYADSVKGRFTISRDNAKNTVYLQMNSLKPEDTAVYYCNVDSSTIWYLVPGDYWGQGTQVTVSS,low polyreactivity
11,QVQLVESGGGLVQAGGSLRLSCAASGRIFGDYGMGWYRQAPGKERELVAAISSGGSTNYADSVKGRFTISRDNAKNTVYLQMNSLKPEDTAVYYCAKATYPHEYDYWGQGTQVTVSS,low polyreactivity
12,QVQLVESGGGLVQAGGSLRLSCAASGRIFGFNMGWYRQAPGKERELVAAINSGGGTYYADSVKGLFTISRDNAKNTVYLQMNSLKPEYTAVYYCNARFRFRLGQYRYDYWGQGTQVTVSS,high polyreactivity
13,QVQLVESGGGLVQAGGSLRLSCAASGRIFGGNADMGWDRQAPGKERELVAVIDWSGGSTYYADSVKGRFTISRDNAKNTVYFQMHSLKPEDTAVYYCNADAPRSSGDYGQGDYWGQGTQVTVSS,high polyreactivity
14,QVQLVESGGGLVQAGGSLRLSCAASGRIFGGNAMGWYRPAPGKERELVAAITTRGGSTYADSVKGRFTISRDNAKNTVYLQMNSLKPEDTAVYYCAVERSYHGGPRYLVRTYGYWGQGTQVTVSS,low polyreactivity
15,QVQLVESGGGLVQAGGSLRLSCAASGRIFGGNVRGWYRQAPGKERELVAGISFSGGSTYYADSVKGRFTISRDNAKNTVYLQMNSLKPEDTAHYYCAASTYQPGALPFDYWGQGTQVTVSS,low polyreactivity
16,QVQLVESGGGLVQAGGSLRLSCAASGRIFGGYAMGWYRQAPGKERELVAAIRDSGRTYYADSVKGRFTISRDNAKNTVYLQMNSLKPEDTAVYYCAADAHSSYSPFRWYDYWGQGTQVTVSS,low polyreactivity
17,QVQLVESGGGLVQAGGSLRLSCAASGRIFGGYAMGWYRQAPGKERELVAAISRSGGSTYYADSVKGRFTISRDNAKNTVYLQMNSLKPEDTAVYYCNVASKRALSRYKGYYWGQGTQVTVSS,high polyreactivity
18,QVQLVESGGGLVQAGGSLRLSCAASGRIFGGYAMGWYRQAPGKERELVAGIRSGGSTYYADSVKGRFTISRDIAKNTVYLQINSLKPEDTAVYYCNARLYFWNRYTYSQNNYWGQGTQVTVSS,high polyreactivity
19,QVQLVESGGGLVQAGGSLRLSCAASGRIFGGYGRGWYRQAPGKERELVAAITSGDGSTYAESVKGRFTISRDNAKNTVYLQMNSLKPEDTAVYYCADESFGYSIDITDHEYWGQGTQVTVSS,high polyreactivity
20,QVQLVESGGGLVQAGGSLRLSCAASGRIFGGYVMGWYRQAPGKEREFVAAISGRGTSTSYADSVKGRFTISRDNAKNTVYLQMNSLKPEDTAVYYCAARRDGWTFWKYDYWGQGTQVTVSS,high polyreactivity
21,QVQLVESGGGLVQAGGSLRLSCAASGRIFGHYAMGWYRQAPGKERELVAAITIGGSTYYADSVKGRFTISRDNAKNTVYLQMNSLKPEDTAVYYCAKVGSNYRGRLGYWGQGTQVNVSS,low polyreactivity
22,QVQLVESGGGLVQAGGSLRLSCAASGRIFGHYAMGWYRQAPGKERELVAAITRSGDRTYYADSVKGRFTISRDNAKNTVYLQMNSLKPEDTEVYYCAADVSAVQGYYYWGQGTQVTVSS,low polyreactivity

row,Sequence,polyreactivity (PSR sort gate)
1,QVQLVESGGGLVQAGGSLRLSCAASGRIFGHYARGWYRQAPGKERELVAAITSGGRTYYADSVKGRFTISRDNAKNTVYLQMNSLKPEDTAVYYFNVRVFVGLQPFGYWGQGTQVTVSS,high polyreactivity
2,QVQLVESGGGLVQAGGSLRLSCAASGRIFGHYVMGWYRQAPGTERELVAAISYSGGSTYYAHSVKGRFTISRDNAKNTVYLQMNSLKPEDTAVYYCAAYVYRYHRVAYEYWGQGTQVTVSS,high polyreactivity
3,QVQLVESGGGLVQAGGSLRLSCAASGRIFGINAMGWYRQAPGKERALVAAISRSGSRTYYADSVKGRFTISRDNAKNTVYLQMNSLKPEDTAVYYCAAQKRVYDSVRSTDRYDYWGQGTQVTVSS,high polyreactivity
4,QVQLVESGGGLVQAGGSLRLSCAASGRIFGIYAMGWYRQAPGKERELVAAINSGDSTYADSVKGRFTISRDNAKNTVYLQMNSLKPEDTAVYYCAAEESTSSWSINDYWGQGTQVTVSS,low polyreactivity
5,QVQLVESGGGLVQAGGSLRLSCAASGRIFGIYAMGWYRQAPGKERELVAVITRGDRTYADSVKGRFTISRDNAKNTVYLQMNSLKTEDTAVYYCNADTGYRFDYWGQGTQVTVSS,high polyreactivity
6,QVQLVESGGGLVQAGGSLRLSCAASGRIFGKYALGWYRQAPGKERELVAAISGRGGRTYYADSVKGRFTISRDNAKNTVYLQMNSLKPEDTAVYYFANDPRGSRYDYWGQGTQVTVSS,high polyreactivity
7,QVQLVESGGGLVQAGGSLRLSCAASGRIFGKYTMGWYRQAPGKERELVAAISWGGGSTYYADSVKGRFTISRDNAKNTVYLQMNSLKPEDTAVYYCAADYYYYHTQEYDYWGQGTQVTVSS,high polyreactivity
8,QVQLVESGGGLVQAGGSLRLSCAASGRIFGKYVMGWYRQAPGKERELVAGISWSAGSTYYADSVKGRYTISRDNAKYTVYLQMNSLKPEDTAVYYCAAGLEGGYDYWGQGTQVTVSS,low polyreactivity
9,QVQLVESGGGLVQAGGSLRLSCAASGRIFGLNAMGWYRQAPGKEREFVAAITWRGGRTYYADSVKGRFTISRDNAKNTVYLQMNSLKPEDTAVYYCAADGGSTLDYYWGQGTQVTVSS,low polyreactivity
10,QVQLVESGGGLVQAGGSLRLSCAASGRIFGLYAMGWYRQAPGKEREFVAAINWDGGSTFYADSVKGRFTISRDNAKNTVYLQMNSLKPEDTAVYYCAADVYSYVSYSTYVSVFTYDYWGQGTQVTVSS,low polyreactivity
11,QVQLVESGGGLVQAGGSLRLSCAASGRIFGLYAMGWYRQAPGKERELVAAIRGRGGRTSYADSVKGRFTISRDNAKNTVYLQMNSLKPEDTAVYYCNAELYPWPGVVRYNYWGQGTQVTVSS,high polyreactivity
12,QVQLVESGGGLVQAGGSLRLSCAASGRIFGLYAMGWYRQAPGKERELVAAYADSVKGRFTISRDYAKNTVYLQMNSLKPEDTAVYYCAKGPLYAGYSIDLRDFNYWGQGTQVTVSS,low polyreactivity
13,QVQLVESGGGLVQAGGSLRLSCAASGRIFGLYTIGWYRQAPGKDREFVAGITYSAGRTYYADSVKGRFPISRDNAKNTVYLQMNSLKPEDTAVYYCAARIYSKFTSYGILDSWGQGTQVTVSS,high polyreactivity
14,QVQLVESGGGLVQAGGSLRLSCAASGRIFGNYAKGWYRQAPGKERELVAAISGGGSTYYADSVKGRFTISRDNAKNTVYLQMNSLKPEDTAVYYCAARFLSSVFGRKGGYWGQGTQVTVSS,low polyreactivity
15,QVQLVESGGGLVQAGGSLRLSCAASGRIFGNYAMGWYRQAPGKARELVAAITSGARTYYADSVKGRFTISRDNAKNTVYLQMNSLKPEDTAVYYCAAYHKSYSYRYDYWGQGTQVTVSS,high polyreactivity
16,QVQLVESGGGLVQAGGSLRLSCAASGRIFGPNAMGWYRQAPGKERELVAAISTSGGRTYYADSVKGRFTISRDNAKNTVYLQMNSLKPEDTAVYYCAADRSRWGQGTQVTVSS,high polyreactivity
17,QVQLVESGGGLVQAGGSLRLSCAASGRIFGPYAMGWYRQAPGKERELGASISGGGSTNYADSVKGRFTISRDNAKNTVYLPMNSVKPEDTAVYYCAADVYYQYWGWWPYDYWGQGTQVTVSS,low polyreactivity
18,QVQLVESGGGLVQAGGSLRLSCAASGRIFGPYAMGWYRQAPGKERELVASISYSGGSTYYADSVKGRFTISRDNAKNTVYLQMNSLKPEDTAVYYCAKGGYWRGYNYYYWGQGTQVTVSS,low polyreactivity
19,QVQLVESGGGLVQAGGSLRLSCAASGRIFGPYTMGWYRQAPGKERELVAAINGRGGSTYYADSVKGRFTISRDNAKNTVYLQMNSLKPEDTAVYYFNASPTWVYSRVYGYNYWGQGTQVTVSS,low polyreactivity
20,QVQLVESGGGLVQAGGSLRLSCAASGRIFGPYTMGWYRQAPGKERELVAGITKSGSSTYYADSVKGRFTISRDNAKNTVYLQMNSLKPEDTAVYYCAADVYQVRGYYWGQGTQVTLSS,high polyreactivity
21,QVQLVESGGGLVQAGGSLRLSCAASGRIFGPYVMGWYRQAPGKERELVAAINRRGGSTYYADSVKGRFTISRDNAKNTVYLQMNSLKPEDTAVYYCAAKKATVVYRMEYWGQGTQVTVSS,high polyreactivity
